Residue numbers refer to the chain shown, from its start.
B1: hN1S3-153 (scFv, V domains shown)
VH: QVQLQESGGGLVQPGGSLSLSCATSGFTFGNYVMRWVRQAPGKGLEWVSTITEGGGDFIYYADSVKGRFAISRDNSKSTVYLHMNGLRVEDTAVYYCAKSGGDDNSNYNFEYWGQGTLVTVSS
VL: QAVLTQPSSVSGAPGQRVIISCTGTSSNTGAGYYVNWYQQLPGAAPKVLIFGNDNRPSGVPDRFSGAKSGTSASLAITGLQAEDEADYYCQSYDRSLSGWVFGGGTKLTVL
notes: phage scFv
B2: hN1S3-007 (scFv, V domains shown)
VH: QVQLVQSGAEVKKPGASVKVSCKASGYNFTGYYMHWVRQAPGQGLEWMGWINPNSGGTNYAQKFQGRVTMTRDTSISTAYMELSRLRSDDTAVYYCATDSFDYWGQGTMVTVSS
VL: QAVLTQPSSVSGTPGQRVTMSCSGGRSNIGSNAVNWYQQFPGTAPKLLMYNTNQRPSGVPGRFSGSKSGASASLAISGLQSDDEADYYCSSWDDSLNGLEFGGGTKLTVL
notes: phage scFv
B3: N1wc266 (scFv, V domains shown)
VH: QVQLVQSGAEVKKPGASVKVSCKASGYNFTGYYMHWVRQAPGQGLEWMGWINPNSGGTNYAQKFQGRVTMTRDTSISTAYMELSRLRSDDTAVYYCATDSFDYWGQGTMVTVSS
VL: B2 VL with T108E, V109I, L110K
notes: phage scFv
B4: N1wc21 (scFv, V domains shown)
VH: QVQLVESGAEVKKPGASVKVSCKASGYTFTDHYIQWLRQAPGQGLEWMGWMNPKSGGTNYAQKFQGRVTLTRDTSISTAYMDLSGLRFDDTAIYFCASDPTIPPSPNYDYYYYAMDLWGKGTLVTVSS
VL: SYELTQPPSVSVSPGQTARITCSGDALPDKYVHWYQQKSGQAPVLVLFDDSKRPSGIPERFSGSSSGTVATLIISGAQVEDEGDFFCYSTDSSGNERVFGGGTKLTVL
notes: phage scFv
B5: hN1S3-127 (scFv, V domains shown)
VH: EVQLVQSGAEVKKPGASVKVSCKASGYNFTGYYMHWVRQAPGQGLEWMGWINPNSGGTNYAQKFQGRVTMTRDTSISTAYMELSRLRSDDTAVYYCATDSFDYWGQGTLVTVSS
VL: QSVLTQPPSVSGAPGQRVTISCSGSTSNIGGNPVTWYQQFPGTAPKLLVYRDNQRPSGVADRFSGSRSGTSASLAISGLQSEDEADFYCASWDDSLGGVVFGGGTKLTVL
notes: phage scFv
B6: hN1S3-006 (scFv, V domains shown)
VH: B5 VH with E1Q, M34I, T69I, Q106R
VL: QAVLTQPSSASGTAGQRVTISCSGSNSNIGSNTVNWYQQLPGTTPKLLIYSNNERPSGVPDRFSGSKSGTSASLAISGLQSDDEADYYCAAWDDSLNGYVFGTGTKVTVL
notes: phage scFv
B7: hN1S3-177 (scFv, V domains shown)
VH: B5 VH with T58A, Q106R
VL: QAVLTQPSSASGTPGQRVTISCSGSSSNIGTNYVYWYQHLPGMAPKLLLYSNNQRPSGVPDRFSGSKSGPSASLAISGLRSEDEADYYCAAWDDSLSGLVFGGGTKLTVL
notes: phage scFv
B8: hN1S3-136 (scFv, V domains shown)
VH: B5 VH with E1Q, V5Q, Q6E, Q106R, L109T
VL: QAVLTQPSSESGTPGQRVTISCSGTTSNIGDNTVTWYQQLPGTAPKLLIYSNTQRPSGVPARFSGSKSGTSASLAISGLQSGDEADYYCAAWDDSRNGYVFGTGTKLTVL
notes: phage scFv
B9: hN1S3-135 (scFv, V domains shown)
VH: B5 VH with Q106K
VL: LPVLTQPPSVSEAPRQRVTISCSGSSFNIGNNAVNWYQQLPGKAPKLLIYYDDLLPSGVSDRFSGSKSGTSASLAISGLQSEDEADYYCAAWDDSLNAVVFGGGTKVTVL
notes: phage scFv
B10: hN1S3-003 (scFv, V domains shown)
VH: EVQLVQSGPEVKKPGTSVKVSCKASGFTFTNSAVQWVRQARGQRLEWIGWIVVGSGNTNYAQKFQERVTITRDMSTSTAYMELSSLKSEDTAVYYCVADTVYWGQGTLVTVSS
VL: not shown
notes: phage scFv
B11: hN1S3-040 (scFv, V domains shown)
VH: B10 VH with N31S, K87R, Q105R, L108T
VL: QSVLTQPPSASGTPGQGVTISCSGSSSNIGRNSVNWYQQLPGTAPKLLIYGDNQRPSGVPDRFSGSKPGTSASLAISGLQSDDEAHYYCAAWDDSLNGWVFGGGTKVTVL
notes: phage scFv
B12: N1wc11 (scFv, V domains shown)
VH: B10 VH with T58I, Q105R, L108M
VL: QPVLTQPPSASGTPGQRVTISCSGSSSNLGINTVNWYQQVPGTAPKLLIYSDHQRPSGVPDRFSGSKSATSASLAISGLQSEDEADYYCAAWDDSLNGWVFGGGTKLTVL
notes: phage scFv
B13: hN1S3-088 (scFv, V domains shown)
VH: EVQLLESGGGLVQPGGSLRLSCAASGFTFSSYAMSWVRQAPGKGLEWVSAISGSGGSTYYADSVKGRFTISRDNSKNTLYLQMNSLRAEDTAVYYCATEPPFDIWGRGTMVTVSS
VL: QSVLTQPPSVSGTPGQRVTISCSGSSSNIGNDVVNWYQQLPGTAPKLLIYNDYQRPSGVSDRFSGSKSGTSAYLAISGLQSEDEADYHCAVWDDSLDGWVFGGGTKLTVL
notes: phage scFv
B14: hN1S3-182 (scFv, V domains shown)
VH: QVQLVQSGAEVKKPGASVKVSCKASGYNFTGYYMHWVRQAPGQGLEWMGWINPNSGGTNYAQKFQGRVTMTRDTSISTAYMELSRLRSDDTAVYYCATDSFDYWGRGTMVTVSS
VL: QAVLTQPSSVSGAPGQRVTISCTGSSSNIGSPYDVNWYQQFPGTAPKLLIYGNINRPSGVPDRFSGSKSGTSASLAITGLQAEDEADYYCQTYDSTLNGAVFGGGTKLTVL
notes: phage scFv
B15: hN1S3-108 (scFv, V domains shown)
VH: QVQLVQSGAEVRKPGASVKVSCKASGYTFTDYYLHWVRQAPGLGLEWMGWINPNTGGTDYGQKFQGRVTMTRDTSINTAYMELSSLRSDDTAVYYCARGAYDYVWGSHRYVADAFDIWGQGTTVTVSS
VL: DIVMTQSPSTLSASVGDRVTITCRASQGISSWLAWYQQKPGRAPKVLIYKASTLESGVPSRFSGSGSGTDFTLTISSLQPEDFATYYCQQSYSTPWTFGQGTKLEIK
notes: phage scFv
B16: hN1S3-087 (scFv, V domains shown)
VH: QVQLVQSGAEVKKPGASVRISCKTSGFTFTSYFIHWVRQAPGQRPEWMGVINPSRGNADYAPRFRGRVTMTRDKSTHTVYMDLKSLRSDDAAIYYCARDRLGGLLDYYDSSDSSKNFDAFDFWGQGTLVTVSS
VL: NFMLTQPHSVSESPGKTVTISCTRSSGSIGSSYVQWYQQRPGTSPVTIIYEDSQRPSGVPDRFSGSIDNSANSASLTISGLKTEDEADYYCQSYDANNRVFGGGTKLTVL
notes: phage scFv
B17: hN1S3-190 (scFv, V domains shown)
VH: B16 VH
VL: SSELTQDPAVSVALGQTVRITCQGDSLRSNYPSWYQQKPGQAPLLVIYSENRRPSGIPDRFSASRSGNTASLTITGAQAEDEADYYCHSRGSSGNHKVFGGGTQLTVL
notes: phage scFv
B18: N1wc82 (scFv, V domains shown)
VH: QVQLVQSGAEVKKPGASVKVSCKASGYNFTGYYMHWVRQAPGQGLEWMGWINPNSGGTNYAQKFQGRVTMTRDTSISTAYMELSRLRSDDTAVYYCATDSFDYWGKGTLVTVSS
VL: QSVLTQPPSVSATPGQKVTISCSGSNSNIGNNYVSWYQQLPGTAPKLLIYDSDQRPAGIPDRFSGSKLGTSATLGITGLQTGDEADYYCATWDAGLSVLIFGGGTKLTVL
notes: phage scFv
B19: hN1S3-030 (scFv, V domains shown)
VH: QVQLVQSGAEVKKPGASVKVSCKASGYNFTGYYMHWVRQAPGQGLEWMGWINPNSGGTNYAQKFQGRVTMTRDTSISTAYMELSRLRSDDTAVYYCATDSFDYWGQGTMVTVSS
VL: QSVLTQPPSASGTPGQRVSISCSGSSSNIGSNYVYWYQQLPGTAPKVLVYRNNQRPSGVSDRFSGSKYGTSASLAISGLRSEDEADYYCGSWDDSLSGVVFGGGTKVTVL
notes: phage scFv
B20: hN1S3-002 (scFv, V domains shown)
VH: GVQLVQSGAEVKKPGASVKVSCKASGYTFTDYYVHWVRQAPGQGPEWMGWINPNNGGTKYAQKFQGRVTMTTDTSTSTAYMELRSLRSDDTALYYCARDLLPYYGDYRADKIDDFDIWGRGTLVTVSS
VL: QSVLTQPPSASGTPGQRVTISCSGSSSNIGSNTVNWYQRLPGAAPQLLIYNNDQRPSGIPDRFSGSKSGTSGSLVISGLQSEDEADYYCASWDDSLNGRVFGGGTKLTVL
notes: phage scFv
B21: hN1S3-107 (scFv, V domains shown)
VH: EVQLVQSGPEVKKPGASVKVSCKASGYTFTDYFLNWVRQAPGQGLEWIGWINPNTGGTNYAQNFQGRVTVTRDASISTAYMELRSLTSADTAIYYCARGAYDYVWGSHRYVADAFDIWGQGTLVTVSS
VL: B20 VL
notes: phage scFv
B22: N1wc24 (scFv, V domains shown)
VH: EVQLVESGPGLVKPSETLSLTCTVSGGSMTSNFWSWIRQTPGKGLEWIGYVLYTGSTNSNPSLKSRVTMSVDTSKNQVSLTLSSVTAADTAIYYCARGNGWYLPWGRGTMVTVSS
VL: QSVLTQPPSVSGAPRQRVTISCSGSSSNIENNIVNWYQQLPGEAPKLLIYYDNLLPSGVSDRFSGSKSGTSASLAISGLQSGDEADYYCAAWDDSLKAVVFGGGTKLTVL
notes: phage scFv
B23: N1wc16 (scFv, V domains shown)
VH: QVQLQQSGAEVKTPGASVKVSCKASGYTFTDNYIHWVRQAPGQGLEWMGRINVNSGATNYARKFQGRVTMTGDTSISTAYMDLSRLKSDDTAVYYCARDFRYSGVDVWGQGTMVTVSS
VL: QSVLTQPPSVSVAPGQTATLSCVGDAIERKSVHWYQQRPGQAPVLVVHDDSDRPSGIPDRISGSNSGNTATLTITRVEVGDEADYFCQVWDTSSGHDAVVFGGGTKLTVL
notes: phage scFv
B24: hN1S3-112 (scFv, V domains shown)
VH: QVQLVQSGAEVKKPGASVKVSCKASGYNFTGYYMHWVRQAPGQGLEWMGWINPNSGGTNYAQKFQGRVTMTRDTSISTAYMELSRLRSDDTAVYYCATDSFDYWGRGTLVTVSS
VL: LPVLTQPPSASGTPGQRVTISCSGSSSNIGNNYVYWYQQLPGTAPKLLIYRNNQRPSGVPDRFSASKSGTSASLVISGIRSEDEAEYYCGGWDDSLSGQVVFGGGTKLTVL
notes: phage scFv

What was measured:
[1] = target: T1, human full-length Notch1 with C-terminal FLAG tag, stably expressed on 293 FlpIn (TREx) cells (human, UniProt P46531 19-2555); assay: FACS, phage scFv
T1 construct: tetracycline/doxycycline-induced expression from pcDNA5/FRT/TO-HN1+FLAG; also called hN1; 293_N1

[2] = target: T2, human full-length Notch3 with C-terminal FLAG tag, stably expressed on 293 FlpIn (TREx) cells (human, UniProt Q9UM47 40-2321); assay: FACS, phage scFv
T2 construct: whole, on cells; made by the same strategy as the Notch1 line; also called 293-N3; hN3

| Binder | binding result [1] | binding result [2] |
| --- | --- | --- |
| B1 | binds | binds |
| B2 | binds | binds |
| B3 | binds | binds |
| B4 | binds | binds |
| B5 | binds | binds |
| B6 | binds | binds |
| B7 | binds | binds |
| B8 | binds | binds |
| B9 | binds | binds |
| B10 | binds | binds |
| B11 | binds | binds |
| B12 | binds | binds |
| B13 | binds | binds |
| B14 | binds | binds |
| B15 | binds | binds |
| B16 | binds | binds |
| B17 | binds | binds |
| B18 | binds | binds |
| B19 | binds | binds |
| B20 | binds | binds |
| B21 | binds | binds |
| B22 | binds | binds |
| B23 | binds | binds |
| B24 | binds | binds |
